Data as given in the supplement of paper PMC9170038.

These sequences were tested on MS2 coat protein (assay: apparent KD of MS2 coat protein; higher = weaker reporter binding). Settings: Eterna round: R107; input ligand: arginine 13.2 mM.
Method in brief: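 Apparent KD is reported per design as the median of normalised binding-curve fits across its clusters. The RNA switches were made by on-chip transcription from Illumina sequencing clusters. SNAP-549-labelled MS2 coat protein was then added in twofold steps (0.7 or 1.5 nM to 3 µM; 0.8–1.5 h to 10–20 min per step) in 100 mM Tris-HCl pH 7.5, 80 mM KCl, 4 mM MgCl2, without or with constant ligand.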

Sequence	apparent KD of MS2 coat protein [nM]
ACGUAAUGCAGAAGGAGCGUCUAUGUGUUACAUGAGGAUCACCCAUGUGUUAUGUUAUGUGGACAGGUAGGUCGCUGAAGUACGA [JR_SSArginiB_Sub005]	45
UAUGCACAUGAGGAUCACCCAUGUAUGGAAGGAGCGGUGAAUAAACCAGGUAGGUCGCCAUGGUGAGGGUCAUCUAUGUAAUCGU [Exclusion - Arginine A (Freestyle 5)]	51
GAUGAUAUUGCAGAUACCAGACACAUGAGGAUCACCCAUGUCGCUGGGUUACUGGAUCGUGUCCCUUGGCAGCUGCGAUAUCAUC [Austria]	69.7
UGAUGGUGCUGAAGGAGCGUGUAAGAACAAGAACAUGAGGAUCACCCAUGUAUUAAUUUAACGCAGGUAGGUCGCGGUGUUAUUG [11.M]	22.4
CCUGACAUGAGGAUCACCCAUGUGUGAGCACGAGGACCGGUACGGCCGCCACUCGCGUUGCCGGCCGGACUAUCUGGCGAAGUCA [theeternabot_sameState_MS2_Trp_A_10]	28.3
GUUGGUUUGGGAAGGAGCGGGUAUGUUGUCUACUUGAUCCUAACAUGAGGAUCACCCAUGUCCCAGGUAGGUCGCCCAGGCUUUG [12.aD]	35.7
GAUCCUCGUACGGAUACCAGCGACUAACAUGAGGAUCACCCAUGUGAUAAAGAAAAUAUUUGCCCUUGGCAGCCGAAUAGAUAGU [#21 Same State - Theophylline B]	36.5
UACAUGAGGAUCACCCAUGUAUGUAUCGAAGGAGCGCGUGUAAACGCAGGUAGGUCGCGAACAUGAGGAUCACACAUGAGGAUCA [Same State Arginine A]	20.9
UCAUAAGUACCGGUCCUCAGAUCCUCAUGACGAGGACCGGUACGGCCGCCACUCGAAACAUGAGGAUCACCCAUGUAAUAACAUU [Brourdmod23]	19.5
CUAGGAAACUAGUAAGGGUGGUAUAGAGAUACCAGUACAGAAAUGUACCCUUGGCAGCUCACUGCAACAUGAGGAUCACCCAUGU [Ex Theophylline A 11]	29.9
UCUAGGCUCGGAAACGAGCCUAGUACAGAAGGAGCGUGGAUUAACACAGGUAGGUCGCUGACAUGAGGAUCACCCAUGUAUUAUU [SSAA #3]	32.5
AAAACACAUGAGGAUCACCCAUGUCAUGAUACCAGUCCACAUGAGGACCCUUGGCAGCAUAAAAUGGGUAACAUGAGGAUAACCC [AstrosEXyTheA#4]	26.5
UAUUCUGACACAGAUACCAGUCAAUUCCGUGGCAAGUGCUACAUGAGGAUCACCCAUGUCGACCCUUGGCAGCUGAAGAGAUACA [theeternabot_exclusion_MS2_Theo_B_50]	10.9
UAUACUAUGAAAGUAGUAUAUACGUGUUGACGAGGACCGGUACGGCCGCCACUCGACAUGAGGAUCACCCAUGUAUAGAAUAAGU [TrypA_F1]	18.6
UGUAUGGACUGAAGGAGCGGAUGAUAAUCUGAGGAUCACCCAGGUAAUAAGGCGAAAGCCAUCCAGGUAGGUCGCAGUCCAUACU	40.9
GCGAACGGACCGUUGCCUUCCUGUGUGCGGCGAGGACCGGUACGGCCGCCACUCGACUGCGUACAUGAGGAUCACCCAUGUUAGA [theeternabot_exclusion_MS2_Trp_A_16]	41.2
UAAUAAUUGUGAUUCUCAGGUCCUCGAUAACGAGGACCGGUACGGCCGCCACUCGAACAUGAGGAUCACCCAUGUAUGAGGACCU [M'-T'-T-MS2-T'' - Design 3]	13.8
CGGCCCUCAGAUGAGGAUCACCCAUCUGAUACCAGCCUGGAAACAGGCCCUUGGCAGCAGAAGGUCAUCAAAGAUGACCAAGCCG [TheoAX 30 #OpenEnded #AlternativeMS2]	10
UCGGGCAGAGCGGCCGCCACUGUUUGGCGUGCGGAUGAAGGAACAUGAGGAUCACCCAUGUUGAUUAGGACCGGGCUUGCGGAGA [kklmullin]	12.6
GGCGCGGUGAUGGUAGCCGGACGCUAGGUACGAGGACCGGUACGGCCGCCACUCGGAGUCCUGGGACAUGAGGAUCACCCAUGUA [Same State Trp A GF18]	78.9
ACGUCCGGAUUACUCGUGGGCAUGGUCGAUACCAGUAUUUUAAUCUACCCUUGGCAGCGACAUGAGGAUCACCCAUGUGCGAUGA [XTheo A #20]	21.5
CGAUAUAAGACGGCCGCCACUAUUAAGUAUCAAAAUAAACAUGAGGAUCACCCAUGUACAUGGGAUAGGACCGGGUCCAAUAACG [A2]	40.7
AAGGGAGAAUCAGAUACCAGAGUAAGAUGGCAUGAUAAUUACAUGAGGAUCACCCAUGUACUCCCUUGGCAGCUGACAAUAUAUU [Exclusion Theophylline B GF 18]	12.5
UGUAACAUGAGGAUCACCCAUGUAAGUGAUACCAGAUAAGUAGUAGUCCCUUGGCAGCAUAUUGGGCGAGUGUAUAGUCUAUACG [Same State - Theophylline A (Freestyle 7)]	39.9
GCUAGGUCAUCGGCCGCCACUAACGACGGCUCCAACAUGAGGAUCACCCAUGUGCCACAUGCGCAUAGGACCGGGAUGACCUAGC [SSTB NP+V+V2 #4]	25.6
UACUUGCGGUCGGCCGCCACUACGAGGCAGACCUUCACAUGAGGAUCACCCAUGUAGUCGGCUAGUAGGACCGGGAUGGCAUAAA [Solasoce]	28.6
AACAUGAGGAUCACCCAUGUCCUCGUGUUCCGAGGACCGGUACGGCCGCCACUCGGUCCUCGCGAGGAUGGUCAAAGACUAUCCA [Omei Trp A SS B v3]	724
AAGCUGGGUGUAAAAUAAAUAAUCACUGAUACCAGACUAUGAGAUGUCCCUUGGCAGCAGAAACAUGAGGAUCACCCAUGUAAUA [JR_Nu_ExcTheophyA_Sub027]	21.4
UGUCAGCGAAAGUUGACAUGUUGAACCGGUCGAGGACCGGUACGGCCGCCACUCGAUCUCUCGUACAUGAGGAUCACCCAUGUCG [SS Tryp A #18]	11.9
AGUUUAGACACGGCCGCCACUCGUGACAGAUUUCGCAGUGGUCUACAUGAGGAUCACCCAUGUCUGAGGACCGGGUGUUGAGUUU [XTryp B #8]	76.3

Same assay, conditions: Eterna round: R107; input ligand: none

Sequence	apparent KD of MS2 coat protein [nM]
ACGUAAUGCAGAAGGAGCGUCUAUGUGUUACAUGAGGAUCACCCAUGUGUUAUGUUAUGUGGACAGGUAGGUCGCUGAAGUACGA [JR_SSArginiB_Sub005]	127
UAUGCACAUGAGGAUCACCCAUGUAUGGAAGGAGCGGUGAAUAAACCAGGUAGGUCGCCAUGGUGAGGGUCAUCUAUGUAAUCGU [Exclusion - Arginine A (Freestyle 5)]	47.3
UGAUGGUGCUGAAGGAGCGUGUAAGAACAAGAACAUGAGGAUCACCCAUGUAUUAAUUUAACGCAGGUAGGUCGCGGUGUUAUUG [11.M]	20.2
GUUGGUUUGGGAAGGAGCGGGUAUGUUGUCUACUUGAUCCUAACAUGAGGAUCACCCAUGUCCCAGGUAGGUCGCCCAGGCUUUG [12.aD]	139
UCUAGGCUCGGAAACGAGCCUAGUACAGAAGGAGCGUGGAUUAACACAGGUAGGUCGCUGACAUGAGGAUCACCCAUGUAUUAUU [SSAA #3]	24.3
UAUACUAUGAAAGUAGUAUAUACGUGUUGACGAGGACCGGUACGGCCGCCACUCGACAUGAGGAUCACCCAUGUAUAGAAUAAGU [TrypA_F1]	23.7
UGUAUGGACUGAAGGAGCGGAUGAUAAUCUGAGGAUCACCCAGGUAAUAAGGCGAAAGCCAUCCAGGUAGGUCGCAGUCCAUACU	82.9
UAAUAAUUGUGAUUCUCAGGUCCUCGAUAACGAGGACCGGUACGGCCGCCACUCGAACAUGAGGAUCACCCAUGUAUGAGGACCU [M'-T'-T-MS2-T'' - Design 3]	15.9
CGGCCCUCAGAUGAGGAUCACCCAUCUGAUACCAGCCUGGAAACAGGCCCUUGGCAGCAGAAGGUCAUCAAAGAUGACCAAGCCG [TheoAX 30 #OpenEnded #AlternativeMS2]	11.8
UCGGGCAGAGCGGCCGCCACUGUUUGGCGUGCGGAUGAAGGAACAUGAGGAUCACCCAUGUUGAUUAGGACCGGGCUUGCGGAGA [kklmullin]	17.1
GGCGCGGUGAUGGUAGCCGGACGCUAGGUACGAGGACCGGUACGGCCGCCACUCGGAGUCCUGGGACAUGAGGAUCACCCAUGUA [Same State Trp A GF18]	161
ACGUCCGGAUUACUCGUGGGCAUGGUCGAUACCAGUAUUUUAAUCUACCCUUGGCAGCGACAUGAGGAUCACCCAUGUGCGAUGA [XTheo A #20]	20.5
CGAUAUAAGACGGCCGCCACUAUUAAGUAUCAAAAUAAACAUGAGGAUCACCCAUGUACAUGGGAUAGGACCGGGUCCAAUAACG [A2]	128
GCUAGGUCAUCGGCCGCCACUAACGACGGCUCCAACAUGAGGAUCACCCAUGUGCCACAUGCGCAUAGGACCGGGAUGACCUAGC [SSTB NP+V+V2 #4]	36.9
UACUUGCGGUCGGCCGCCACUACGAGGCAGACCUUCACAUGAGGAUCACCCAUGUAGUCGGCUAGUAGGACCGGGAUGGCAUAAA [Solasoce]	29.2

Same assay, conditions: Eterna round: R107; input ligand: theophylline 20 uM

Sequence	apparent KD of MS2 coat protein [nM]
ACGUAAUGCAGAAGGAGCGUCUAUGUGUUACAUGAGGAUCACCCAUGUGUUAUGUUAUGUGGACAGGUAGGUCGCUGAAGUACGA [JR_SSArginiB_Sub005]	104
UAUGCACAUGAGGAUCACCCAUGUAUGGAAGGAGCGGUGAAUAAACCAGGUAGGUCGCCAUGGUGAGGGUCAUCUAUGUAAUCGU [Exclusion - Arginine A (Freestyle 5)]	78.4
GAUGAUAUUGCAGAUACCAGACACAUGAGGAUCACCCAUGUCGCUGGGUUACUGGAUCGUGUCCCUUGGCAGCUGCGAUAUCAUC [Austria]	379
UGAUGGUGCUGAAGGAGCGUGUAAGAACAAGAACAUGAGGAUCACCCAUGUAUUAAUUUAACGCAGGUAGGUCGCGGUGUUAUUG [11.M]	30.7
CCUGACAUGAGGAUCACCCAUGUGUGAGCACGAGGACCGGUACGGCCGCCACUCGCGUUGCCGGCCGGACUAUCUGGCGAAGUCA [theeternabot_sameState_MS2_Trp_A_10]	39.6
GUUGGUUUGGGAAGGAGCGGGUAUGUUGUCUACUUGAUCCUAACAUGAGGAUCACCCAUGUCCCAGGUAGGUCGCCCAGGCUUUG [12.aD]	230
GAUCCUCGUACGGAUACCAGCGACUAACAUGAGGAUCACCCAUGUGAUAAAGAAAAUAUUUGCCCUUGGCAGCCGAAUAGAUAGU [#21 Same State - Theophylline B]	91.5
UACAUGAGGAUCACCCAUGUAUGUAUCGAAGGAGCGCGUGUAAACGCAGGUAGGUCGCGAACAUGAGGAUCACACAUGAGGAUCA [Same State Arginine A]	31.1
UCAUAAGUACCGGUCCUCAGAUCCUCAUGACGAGGACCGGUACGGCCGCCACUCGAAACAUGAGGAUCACCCAUGUAAUAACAUU [Brourdmod23]	28.4
CUAGGAAACUAGUAAGGGUGGUAUAGAGAUACCAGUACAGAAAUGUACCCUUGGCAGCUCACUGCAACAUGAGGAUCACCCAUGU [Ex Theophylline A 11]	41.6
UCUAGGCUCGGAAACGAGCCUAGUACAGAAGGAGCGUGGAUUAACACAGGUAGGUCGCUGACAUGAGGAUCACCCAUGUAUUAUU [SSAA #3]	38
AAAACACAUGAGGAUCACCCAUGUCAUGAUACCAGUCCACAUGAGGACCCUUGGCAGCAUAAAAUGGGUAACAUGAGGAUAACCC [AstrosEXyTheA#4]	48.1
UAUUCUGACACAGAUACCAGUCAAUUCCGUGGCAAGUGCUACAUGAGGAUCACCCAUGUCGACCCUUGGCAGCUGAAGAGAUACA [theeternabot_exclusion_MS2_Theo_B_50]	14.7
UAUACUAUGAAAGUAGUAUAUACGUGUUGACGAGGACCGGUACGGCCGCCACUCGACAUGAGGAUCACCCAUGUAUAGAAUAAGU [TrypA_F1]	24.4
UGUAUGGACUGAAGGAGCGGAUGAUAAUCUGAGGAUCACCCAGGUAAUAAGGCGAAAGCCAUCCAGGUAGGUCGCAGUCCAUACU	96.9
